Results reported in the Immune Epitope Database (IEDB).
Each block holds one sequence with its values, some of them ahead of it.

Columns and labels:
[1] = target: HLA-B*40:01; test: IEDB peptide-MHC binding, purified MHC/direct/fluorescence; filed as Kd, often an IC50 or EC50 that approximates it; ≥ and ≤ were set here for values at or beyond the usual limits of such assays
[2] = target: HLA-B*18:01; test: as above
[3] = target: HLA-A*02:03; test: IEDB peptide-MHC binding, purified MHC/competitive/radioactivity; filed as Kd, often an IC50 or EC50 that approximates it; ≥ and ≤ were set here for values at or beyond the usual limits of such assays
[4] = target: HLA-A*68:02; test: as above
[5] = target: HLA-A*02:06; test: as above
[6] = target: HLA-A*11:01; test: as above
[7] = target: HLA-A*68:01; test: as above
[8] = target: HLA-A*31:01; test: as above
[9] = target: HLA-A*03:01; test: as above
[10] = target: HLA-A*02:01; test: as above
[11] = target: HLA-B*35:01; test: as above
[12] = target: HLA-B*07:02; test: as above
[13] = target: HLA-B*54:01; test: as above
[14] = target: HLA-B*53:01; test: as above
[15] = target: HLA-A*33:01; test: as above
[16] = target: HLA-A*02:02; test: as above
[17] = target: HLA-B*51:01; test: as above
[18] = target: HLA-B*15:01; test: as above
[19] = target: HLA-A*26:01; test: as above
[20] = target: HLA-A*30:02; test: as above
[21] = target: HLA-A*03:01; test: IEDB peptide-MHC binding, purified MHC/competitive/fluorescence; filed as Kd, often an IC50 or EC50 that approximates it; ≥ and ≤ were set here for values at or beyond the usual limits of such assays
[22] = target: HLA-A*01:01; test: IEDB peptide-MHC binding, purified MHC/competitive/radioactivity; filed as Kd, often an IC50 or EC50 that approximates it; ≥ and ≤ were set here for values at or beyond the usual limits of such assays
[23] = target: HLA-A*32:01; test: as above; details: source organism: Vaccinia virus WR
[24] = target: HLA-A*11:01; test: IEDB peptide-MHC binding, purified MHC/competitive/fluorescence; ≥ and ≤ were set here for values at or beyond the usual limits of such assays
[25] = target: HLA-A*02:01; test: as above
[26] = target: HLA-A*24:02; test: as above
[27] = target: HLA-A*29:02; test: IEDB peptide-MHC binding, purified MHC/competitive/fluorescence; filed as Kd, often an IC50 or EC50 that approximates it; ≥ and ≤ were set here for values at or beyond the usual limits of such assays
[28] = target: HLA-A*24:03; test: IEDB peptide-MHC binding, purified MHC/direct/fluorescence; filed as Kd, often an IC50 or EC50 that approximates it; ≥ and ≤ were set here for values at or beyond the usual limits of such assays; details: source organism: Amur virus
[29] = source organism: Burkholderia ambifaria AMMD
[30] = source organism: Francisella tularensis subsp. holarctica LVS
[31] = source organism: Vaccinia virus WR
[32] = source organism: Mammarenavirus whitewaterense
[33] = source organism: Dengue virus 4 Philippines/H241/1956
[34] = source organism: SARS coronavirus Tor2
[35] = source organism: Dengue virus 2 Jamaica/1409/1983
[36] = source organism: Mammarenavirus lassaense
[37] = source organism: Dengue virus 3 Martinique/1243/1999
[38] = source organism: Dengue virus 1 Brazil/97-11/1997
[39] = source organism: Triticum aestivum
[40] = source organism: Sudan ebolavirus
[41] = source organism: Vaccinia virus Copenhagen
[42] = source organism: Dengue virus 4 Dominica/814669/1981
[43] = source organism: Trypanosoma cruzi
[44] = source organism: Mammarenavirus juninense
[45] = source organism: Hepacivirus hominis
[46] = source organism: Zaire ebolavirus

Sequence: AELHAKGAY
- Kd [1, 29]: ≥ 20000 nM
- Kd [2, 29]: 1120 nM

Sequence: AEVCAHHLF
- Kd [1, 30]: 3.5 nM
- Kd [2, 30]: 3.6 nM

Sequence: AFVRFSTDK
- Kd [3, 31]: ≥ 78100 nM
- Kd [4, 31]: ≥ 76900 nM
- Kd [5, 31]: ≥ 77100 nM
- Kd [6, 31]: 8600 nM
- Kd [7, 31]: ≥ 57700 nM
- Kd [8, 31]: 3100 nM
- Kd [9, 31]: ≥ 25400 nM
- Kd [10, 31]: ≥ 78100 nM
- Kd [11, 31]: ≥ 33900 nM
- Kd [12, 31]: ≥ 77500 nM
- Kd [13, 31]: ≥ 78100 nM
- Kd [14, 31]: ≥ 78200 nM
- Kd [15, 31]: ≥ 77700 nM
- Kd [16, 31]: ≥ 77800 nM
- Kd [17, 31]: ≥ 77500 nM

Sequence: APTGGVVKI
- Kd [11, 32]: 9320 nM
- Kd [12, 32]: 1780 nM
- Kd [13, 32]: ≥ 78100 nM
- Kd [14, 32]: 10500 nM
- Kd [17, 32]: ≥ 57800 nM

Sequence: AVFKMSPGY
- Kd [18, 33]: 14.3 nM
- Kd [19, 33]: 1920 nM
- Kd [20, 33]: 82.2 nM

- Kd ([21]; source organism: Escherichia coli O139:H28 str. E24377A): 27.8 nM
Sequence: CLLNYSGLK

Sequence: CPASKKESVI
- Kd [11, 31]: ≥ 69900 nM
- Kd [12, 31]: 7.12 nM
- Kd [13, 31]: 2410 nM
- Kd [14, 31]: 92.3 nM
- Kd [17, 31]: 9310 nM

Sequence: CPAVAVHDF
- Kd [11, 34]: 14.4 nM
- Kd [12, 34]: 1640 nM
- Kd [13, 34]: 7480 nM
- Kd [14, 34]: 27.6 nM
- Kd [17, 34]: 241 nM

Sequence: CSAVPSHWV
- Kd [4, 35]: 9.21 nM

Sequence: DEYQGNHMF
- Kd ([2]; source organism: Vibrio parahaemolyticus): 0.6 nM

Sequence: ETALMVIGM
- Kd [4, 33]: 10.5 nM
- Kd [19, 33]: 308 nM

Sequence: ETFSMGLLCL
- Kd [4, 33]: 6.59 nM
- Kd [19, 33]: 289 nM
- Kd [22, 33]: 7330 nM

Sequence: EVLTLATGPV
- Kd [4, 33]: 23.5 nM

Sequence: FPYIMGSVEL
- Kd [11, 36]: 12.4 nM
- Kd [12, 36]: 241 nM
- Kd [13, 36]: 155 nM
- Kd [14, 36]: 80.2 nM
- Kd [17, 36]: 368 nM

Sequence: FTILALFLA
- Kd [4, 37]: 35.5 nM
- Kd [5, 37]: 0.746 nM

Sequence: GPMPYMISTY
- Kd [11, 31]: 89.3 nM
- Kd [12, 31]: 886 nM
- Kd [13, 31]: 1500 nM
- Kd [14, 31]: 272 nM
- Kd [17, 31]: ≥ 64700 nM

Sequence: GSIGGVFTSV
- Kd [4, 38]: 20.1 nM

Sequence: HINKLFSVF
- Kd [23]: 907 nM
- Kd [18, 31]: 0.915 nM

Sequence: HSIENSSVNV
- Kd [4, 35]: 30.9 nM

Sequence: IILAHFLYK
- Kd ([21]; source organism: Bacillus anthracis str. A0488): 12 nM

- Kd [11, 39]: 6050 nM
- Kd [12, 39]: 5900 nM
- Kd [13, 39]: ≥ 25600 nM
- Kd [14, 39]: 3890 nM
- Kd [17, 39]: 774 nM
Sequence: IPEQSQCQAI

Sequence: IPSLFIESSI
- Kd [11, 31]: ≥ 69900 nM
- Kd [12, 31]: 680 nM
- Kd [13, 31]: 429 nM
- Kd [14, 31]: 1980 nM
- Kd [17, 31]: 1900 nM

Sequence: IQRTVFFVL
- Kd [5, 33]: 12.3 nM
- Kd [18, 33]: 5.09 nM

Sequence: LIWTLDANI
- IC50 [24, 40]: ≥ 166000 nM
- IC50 [25, 40]: 480 nM
- IC50 [26, 40]: ≥ 80400 nM

Sequence: LLLKERGLK
- Kd ([21]; source organism: Vibrio vulnificus CMCP6): 29.6 nM

Sequence: LMDSIFVST
- Kd [3, 41]: 232 nM
- Kd [4, 41]: 1790 nM
- Kd [5, 41]: 31.2 nM
- Kd [6, 41]: ≥ 77900 nM
- Kd [7, 41]: ≥ 77700 nM
- Kd [8, 41]: ≥ 36000 nM
- Kd [9, 41]: ≥ 78000 nM
- Kd [11, 41]: ≥ 77400 nM
- Kd [12, 41]: ≥ 77500 nM
- Kd [13, 41]: 5200 nM
- Kd [14, 41]: ≥ 78200 nM
- Kd [15, 41]: ≥ 55300 nM
- Kd [16, 41]: 0.343 nM
- Kd [17, 41]: ≥ 77500 nM

- Kd ([27]; source organism: Sinorhizobium meliloti 1021): 37.3 nM
Sequence: LMISGDLPQ

Sequence: LMYADDTAGW
- Kd [18, 42]: 41.6 nM
- Kd [14, 42]: 46.1 nM

Sequence: LPFHRWHTM
- Kd [11, 34]: 7.16 nM
- Kd [12, 34]: 8.4 nM
- Kd [13, 34]: 274 nM
- Kd [14, 34]: 100 nM
- Kd [17, 34]: 11.1 nM

Sequence: LPIDKCSRII
- Kd [11, 34]: 2550 nM
- Kd [12, 34]: 1400 nM
- Kd [13, 34]: 1140 nM
- Kd [14, 34]: 603 nM
- Kd [17, 34]: 681 nM

Sequence: LPTLFGRGV
- Kd [11, 31]: 1280 nM
- Kd [12, 31]: 8.32 nM
- Kd [13, 31]: 1.99 nM
- Kd [14, 31]: 956 nM
- Kd [17, 31]: 6.04 nM

Sequence: LVAFLRFLTI
- Kd [4, 35]: 103 nM

Sequence: LVGLWGAAAL
- Kd [3, 43]: 95.9 nM
- Kd [4, 43]: 5250 nM
- Kd [5, 43]: 397 nM
- Kd [10, 43]: 689 nM
- Kd [16, 43]: 89.7 nM

Sequence: MAVELFQTI
- Kd [11, 44]: 61 nM
- Kd [12, 44]: 7280 nM
- Kd [13, 44]: 188 nM
- Kd [14, 44]: 6.99 nM
- Kd [17, 44]: 8.54 nM

Sequence: MHTDLELDF
- Kd [28]: 4850 nM

Sequence: MPYVFTLLF
- Kd [11, 34]: 0.59 nM
- Kd [12, 34]: 109 nM
- Kd [13, 34]: 30.6 nM
- Kd [14, 34]: 0.124 nM
- Kd [17, 34]: 4.07 nM

Sequence: MTIDLDPVIY
- Kd [18, 37]: 5.32 nM
- Kd [19, 37]: 5.59 nM
- Kd [7, 37]: 11.9 nM
- Kd [22, 37]: 2990 nM
- Kd [11, 37]: 24.8 nM
- Kd [20, 37]: ≥ 25400 nM

Sequence: MTIHFFLNE
- Kd ([27]; source organism: Entamoeba histolytica HM-1:IMSS): 192 nM

Sequence: MTTEDMLSV
- Kd [4, 38]: 10.6 nM
- Kd [5, 38]: 10.6 nM
- Kd [19, 38]: 1260 nM
- Kd [22, 38]: 5060 nM

Sequence: NAICSAVPV
- Kd [4, 38]: 3.19 nM

- Kd ([4]; source organism: Homo sapiens): 982 nM
Sequence: NLPIYSEEIV

Sequence: NTPEGIIPAL
- Kd [4, 38]: 20.5 nM

- Kd [11, 39]: ≥ 87800 nM
- Kd [12, 39]: 583 nM
- Kd [13, 39]: ≥ 20300 nM
- Kd [14, 39]: ≥ 87700 nM
- Kd [17, 39]: 2160 nM
Sequence: QPFPQPQL

- Kd [11, 39]: 9.37 nM
- Kd [12, 39]: 552 nM
- Kd [13, 39]: ≥ 41000 nM
- Kd [14, 39]: 256 nM
- Kd [17, 39]: 1370 nM
Sequence: QPFPQPQLPY

Sequence: SGTEKEFLR
- IC50 ([24]; source organism: Vaccinia virus): ≥ 412000 nM

Sequence: TSHNILVEV
- Kd [4, 38]: 7.42 nM

Sequence: VLSDFRTWL
- Kd [3, 45]: 7.18 nM
- Kd [4, 45]: 5280 nM
- Kd [5, 45]: 305 nM
- Kd [10, 45]: 1.78 nM
- Kd [16, 45]: 1.72 nM

Sequence: VPAAIMMIL
- Kd [11, 31]: 18700 nM
- Kd [12, 31]: ≥ 76900 nM
- Kd [13, 31]: ≥ 78100 nM
- Kd [14, 31]: 19300 nM
- Kd [17, 31]: ≥ 77500 nM

Sequence: VPLPCQLMYA
- Kd [11, 31]: 2330 nM
- Kd [12, 31]: 7430 nM
- Kd [13, 31]: 0.136 nM
- Kd [14, 31]: 460 nM
- Kd [17, 31]: 621 nM

Sequence: VPYNMRVIHF
- Kd [11, 34]: 1440 nM
- Kd [12, 34]: 149 nM
- Kd [13, 34]: 505 nM
- Kd [14, 34]: 688 nM
- Kd [17, 34]: 5590 nM

Sequence: YKLDISEAT
- IC50 [24, 46]: ≥ 139000 nM
- IC50 [25, 46]: ≥ 158000 nM
- IC50 [26, 46]: 29800 nM
